Residue numbers refer to the chain shown, from its start. In names and notes the source's numbering stands. Values belong to the binder of their own block, whether it stands above or below them.
Experiments:
[1] = molecular target: recombinant human FAP protein (Sino Biological, Cat# 10464-H07H) (human) (UniProt Q12884); test: ELISA on immobilized human FAP; antibody stored at 40 °C for 0 weeks
[2] = molecular target: T1, cynomolgus FAP protein expressed on 293T cells (293T-cynomolgus FAP) (cynomolgus, UniProt Q12884 1-760 (human entry)); test: flow cytometry on 293T-cynomolgus FAP cells
T1 sequence: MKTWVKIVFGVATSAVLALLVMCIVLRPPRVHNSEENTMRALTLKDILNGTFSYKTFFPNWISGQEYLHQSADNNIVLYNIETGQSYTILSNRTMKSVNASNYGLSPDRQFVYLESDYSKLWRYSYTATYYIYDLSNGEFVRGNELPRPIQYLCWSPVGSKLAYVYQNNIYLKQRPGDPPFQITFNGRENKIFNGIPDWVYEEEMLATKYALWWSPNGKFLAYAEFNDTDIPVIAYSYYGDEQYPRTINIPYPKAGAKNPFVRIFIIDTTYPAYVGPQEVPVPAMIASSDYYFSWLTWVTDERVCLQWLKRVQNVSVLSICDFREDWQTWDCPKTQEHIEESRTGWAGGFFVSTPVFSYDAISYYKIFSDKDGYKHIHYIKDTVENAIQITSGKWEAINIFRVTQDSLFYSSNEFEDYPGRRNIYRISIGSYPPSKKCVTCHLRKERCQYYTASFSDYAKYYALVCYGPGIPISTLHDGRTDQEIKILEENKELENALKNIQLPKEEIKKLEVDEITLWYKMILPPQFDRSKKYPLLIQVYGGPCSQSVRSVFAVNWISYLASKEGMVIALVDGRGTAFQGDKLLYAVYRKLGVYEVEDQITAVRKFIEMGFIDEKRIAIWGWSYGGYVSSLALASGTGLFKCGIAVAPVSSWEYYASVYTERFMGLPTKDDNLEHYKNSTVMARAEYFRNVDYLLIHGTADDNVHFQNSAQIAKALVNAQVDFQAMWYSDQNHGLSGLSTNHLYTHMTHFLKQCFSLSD

[3] = molecular target: recombinant human FAP protein (Sino Biological, Cat# 10464-H07H) (human) (UniProt Q12884); test: ELISA on immobilized human FAP; antibody stored at 40 °C for 2 weeks, relative to 0 weeks
[4] = molecular target: T2, human FAP protein expressed on 293T cells (293T-human FAP) (human, UniProt Q12884 1-760); test: flow cytometry on 293T-human FAP cells
T2 sequence: T1 sequence with P29S, F261V, D417E

[5] = molecular target: recombinant human FAP protein (Sino Biological, Cat# 10464-H07H) (human) (UniProt Q12884); test: ELISA on immobilized human FAP; antibody stored at 40 °C for 4 weeks, relative to 0 weeks
[6] = molecular target: T3, recombinant human FAP protein (Sino Biological, Cat# 10464-H07H) (human, UniProt Q12884 26-760); test: ELISA, human FAP protein immobilized on plate
T3 construct: Bought protein
T3 sequence: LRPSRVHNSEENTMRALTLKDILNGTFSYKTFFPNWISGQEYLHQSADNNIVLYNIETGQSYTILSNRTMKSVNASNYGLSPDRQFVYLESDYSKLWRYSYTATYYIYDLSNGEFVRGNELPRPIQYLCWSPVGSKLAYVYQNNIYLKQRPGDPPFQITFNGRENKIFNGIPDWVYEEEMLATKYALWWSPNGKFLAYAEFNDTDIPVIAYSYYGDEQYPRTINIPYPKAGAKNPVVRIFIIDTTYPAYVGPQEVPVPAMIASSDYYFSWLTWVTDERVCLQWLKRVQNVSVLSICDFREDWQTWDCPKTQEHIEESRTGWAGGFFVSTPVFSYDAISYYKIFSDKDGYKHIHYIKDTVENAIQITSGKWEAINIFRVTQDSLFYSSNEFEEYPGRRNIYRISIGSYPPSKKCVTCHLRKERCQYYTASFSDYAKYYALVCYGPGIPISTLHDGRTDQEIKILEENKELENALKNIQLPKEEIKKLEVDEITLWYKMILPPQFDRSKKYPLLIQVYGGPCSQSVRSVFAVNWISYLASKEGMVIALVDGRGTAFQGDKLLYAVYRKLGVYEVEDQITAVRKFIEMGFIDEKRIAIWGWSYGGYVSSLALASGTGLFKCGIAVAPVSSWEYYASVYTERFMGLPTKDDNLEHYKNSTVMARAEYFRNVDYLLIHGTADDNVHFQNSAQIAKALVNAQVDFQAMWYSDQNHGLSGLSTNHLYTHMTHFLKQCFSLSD

ELISA Relative activity [1]: 100% | binding result [2]: binds | ELISA Relative activity [3]: 93.8% | binding result [4]: binds | ELISA Relative activity [5]: 89.9%
B1: humanized anti-FAP antibody huF19-LG (antibody, human IgG1, kappa, V domains shown)
VH: QVQLVQSGAEVKKPGASVKVSCKASGYTFTEYTIHWVRQATGQGLEWIGGINPNNGIPNYNQKFKGRATMTVGTSISTAYMELSSLRSEDTAVYFCARRRIAYGYDEGHAMDYWGQGTLVTVSS
VL: DIQMTQSPSSLSASVGDRVTITCKSSQSLLYSRNQKNYLAWFQQKPGKAPKLLIFWASTRESGVPSRFTGSGFGTDFTLTISSLQPEDFATYYCQQYFSYPLTFGQGTKLEIKR
notes: Full-length human IgG1/kappa; expressed in ExpiCHO-S

binding result [6]: binds | binding result [2]: binds | binding result [4]: binds
B2: sibrotuzumab (humanized reference anti-FAP antibody) (antibody, human IgG1, kappa, V domains shown)
VH: B1 VH with A24T, G26R, T41P, G44R, A68V, M70I, G73D, I76A, F95Y
VL: DIVMTQSPDSLAVSLGERATINCKSSQSLLYSRNQKNYLAWYQQKPGQPPKLLIFWASTRESGVPDRFSGSGFGTDFTLTISSLQAEDVAVYYCQQYFSYPLTFGQGTKVEIKR
notes: Full-length human IgG1/kappa

binding result [2]: binds | binding result [4]: binds
B3: mutant humanized FAP antibody huF19-LG-NGR (antibody, human IgG1, kappa, V domains shown)
VH: B1 VH with G56R
VL: B1 VL
notes: huF19-LG with G56R (Kabat) in HCDR2; also called optimized FAP antibody

Reference: patent EP4578877A1 (Nanjing Leads Biolabs Co., Ltd., dated 2025)
